Laboratory results as given in PMC2760979 (Cancer research, 2009).

Target: GST-p65(1-306) (UniProt Q04206 1-306)
Assay: pull-down

Chain of GST-p65(1-306) (Q04206 1-306): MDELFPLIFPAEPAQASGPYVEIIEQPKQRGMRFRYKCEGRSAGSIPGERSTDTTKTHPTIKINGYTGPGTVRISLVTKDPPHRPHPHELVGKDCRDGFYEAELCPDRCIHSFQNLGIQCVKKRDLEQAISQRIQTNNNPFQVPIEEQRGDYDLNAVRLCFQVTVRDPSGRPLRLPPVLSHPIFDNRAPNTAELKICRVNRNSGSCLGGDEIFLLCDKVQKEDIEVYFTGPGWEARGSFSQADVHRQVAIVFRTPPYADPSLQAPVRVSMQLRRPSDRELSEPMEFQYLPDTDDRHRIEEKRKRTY

- binding result: binds
Binder: GGSSLSY [GGSSLSY peptide]
